Test results taken from article PMC3582359 (Molecular cell, 2012).

Legend:
[1] = molecular target: GFP-250, a chimera of GFP with the cytosolic protein p115; experiment: co-IP
[2] = molecular target: recombinant GRP78 (19-654) Cys41 to Ala mutant (human, UniProt P11021 19-654, Cys41 (Cys to Ala)); experiment: cross-linking
[3] = molecular target: recombinant GRP78 (19-654) Cys420 to Ala mutant (human, UniProt P11021 19-654, Cys420 (Cys to Ala)); experiment: cross-linking

Question: “GRP78 (glucose-regulated protein 78), endogenous in mouse embryonic fibroblasts (from UniProt P20029 20-655) (natural protein)” was tested. Which fold more GFP-250 interacting with GRP78 in WT MEFs than in NPGPx-/- MEFs [1] did it give?
Answer: 3 fold

B1: oxidized recombinant NPGPx (19-187) (natural protein, human, UniProt Q96SL4 19-187, looked up)
chain: AQQEQDFYDFKAVNIRGKLVSLEKYRGSVSLVVNVASECGFTDQHYRALQQLQRDLGPHHFNVLAFPCNQFGQQEPDSNKEIESFARRTYSVSFPMFSKIAVTGTGAHPAFKYLAQTSGKEPTWNFWKYLVAPDGKVVGAWDPTVSVEEVRPQITALVRKLILLKREDL
modifications: single disulfide bond between Cys57 and Cys86
Question: Does B1 bind [2]?
Answer: binds

Question: Does B1 bind [3]?
Answer: binds
